Data set [1] concerns the target PpsR_(Q-PAS1), PpsR variant comprising the glutamine-rich linker (Q-linker) and the PAS1 domain (Rhodobacter sphaeroides) (UniProt Q9S301). In words: crystal structure; PpsR_(Q-PAS1), 8 mg/ml, 100 mM sodium cacodylate pH 6.5, 1.9% PEG 3000, 200 mM MgCl2, 293 K; one chain in the asymmetric unit, dimer by a crystallographic dyad; 1.65 Å.
For data set [2], the target named is PpsR_(N-Q-PAS1), PpsR variant comprising the N-terminal domain, the Q-linker and the PAS1 domain (Rhodobacter sphaeroides) (UniProt Q9S301). Briefly: SEC-MALS; Superdex 200 10/300 GL, buffer D (10 mM CHES pH 9.0, 150 mM NaCl, 5% glycerol), 400 µl of a 20 µM protein solution loaded, 0.5 ml/min. For orientation: In gel filtration, larger molecules generally elute earlier.

For data set [3] the target is unchanged. In words: crystal structure; PpsR_(N-Q-PAS1), 10 mg/ml, 1.6 M ammonium sulfate, 100 mM MES pH 6.5, 10 mM L-cysteine, 4% 1,4-dioxane, 293 K; dimer in the asymmetric unit; 2.2 Å.
For data set [4] the target is unchanged. Briefly: MST; dimer to monomers, KD based on the total monomer concentration; Monolith NT.115, unlabelled protein titrated (1:2 dilution series) into NT-647-labelled protein (10 nM for PpsR_(N-Q-PAS1)), buffer D, three experiments averaged.
Data set [5] concerns the molecule itself. Briefly: MST; tetramer to dimers, KD based on the total dimer concentration; Monolith NT.115, unlabelled protein titrated (1:2 dilution series) into 12.5 nM NT-647-labelled protein, buffer D, three experiments averaged.
Data set [6] concerns the molecule itself. In words: SEC-MALS; Superdex 200 10/300 GL, buffer D (10 mM CHES pH 9.0, 150 mM NaCl, 5% glycerol), 400 µl of a 20 µM protein solution loaded, 0.5 ml/min.
Data set [7] concerns the molecule itself. Briefly: crystal structure; PpsR_(ΔHTH), 30 mg/ml, 1 M ammonium sulfate, 100 mM Tris-HCl pH 8.5, 6% xylitol, 12% glycerol, 1% dioxane, 293 K; four chains in the asymmetric unit, octamer by a crystallographic twofold axis; 2.8 Å.

Several values for one entry are separate records, joined by “and”; a condition that tells them apart may be missing. Equal values may be shown once.

In data set [1], “PpsR_(Q-PAS1), PpsR variant comprising the glutamine-rich linker (Q-linker) and the PAS1 domain (from UniProt Q9S301 123-257) (domain or fragment)” showed a stoichiometry N of 2.
Turning to “PpsR_(N-Q-PAS1), PpsR variant comprising the N-terminal domain, the Q-linker and the PAS1 domain (from UniProt Q9S301 1-257) (domain or fragment)”, the stoichiometry N in data set [2] and in data set [3] was 2 throughout. For the same molecule, the dissociation constant (Kd) in data set [4] was determined as 250 nM.

B1: PpsR_(full), full-length transcription factor PpsR (photopigment suppression) from Rhodobacter sphaeroides (natural protein, UniProt Q9S301 1-464, looked up)
chain: MLAGGSLPSLAPDLVRDLIATAADISLLVSQEGVVREVMANPHHPSFGQLSEWEGRPLEEVLTAESVAKFRLRSEGLEPGRGSVAVELNHIDPRSFEFPIRYILHRLPADRSILMLGRDLRPIAEVQQQLVAAQLAMERDYETQREMETRYRVVLDVSRDPMVLVSMSTGRIVDLNSAAGLLLGGVRQDLLGAAIAQEFEGRRRGEFMETMTNLAATESAAPVEVLARRSQKRLLVVPRVFRAAGERLLLCQIDPADATQPVGDELSENLARLYHEGVDGIVFSDADGTIRGANEAFLNMTDSSSLAAIRGRSIADFLARGSVDLRVLIDSVRRTGQLRLYATRLTTDFAGQIAAEISATWLDDRERPLLVLVVRDTSRADTMRRPVPATGVIDEPARNVMELVGNSTLKDIVAETTDVVEKMCIETALELTRNNRVAAAEMLSLSRQSLYVKLRKFGLLNKDE
notes: PpsR from Rhodobacter sphaeroides, UniProt Q9S301, full-length protein; gene synthesized with codon optimization for E. coli, cloned in pETM-11; In MST one copy was randomly labelled at amine positions with NT-647 red fluorescent dye (about one label per monomer); In solution a dimer-tetramer equilibrium; source: E. coli BL21 (DE3), purified (Ni-NTA, TEV cleavage, HiTrap Heparin, Superdex 200); …
Molecule B1 returned a Kd in data set [5] of 900 ± 300 nM.

B2: PpsR_(ΔHTH), triple PAS domain construct of PpsR (N-domain, Q-linker, PAS1, PAS2) lacking the C-terminal HTH motif (domain or fragment, Rhodobacter sphaeroides, UniProt Q9S301 1-379, looked up)
chain: MLAGGSLPSLAPDLVRDLIATAADISLLVSQEGVVREVMANPHHPSFGQLSEWEGRPLEEVLTAESVAKFRLRSEGLEPGRGSVAVELNHIDPRSFEFPIRYILHRLPADRSILMLGRDLRPIAEVQQQLVAAQLAMERDYETQREMETRYRVVLDVSRDPMVLVSMSTGRIVDLNSAAGLLLGGVRQDLLGAAIAQEFEGRRRGEFMETMTNLAATESAAPVEVLARRSQKRLLVVPRVFRAAGERLLLCQIDPADATQPVGDELSENLARLYHEGVDGIVFSDADGTIRGANEAFLNMTDSSSLAAIRGRSIADFLARGSVDLRVLIDSVRRTGQLRLYATRLTTDFAGQIAAEISATWLDDRERPLLVLVVRDTSR
notes: PpsR from Rhodobacter sphaeroides, UniProt Q9S301; the model ends at 378 with the C-terminal arginine disordered; The forward primer 1_fw introduces ATG GGA before the first codon of PpsR; In MST one copy was randomly labelled at amines with NT-647; A selenomethionine-substituted form was also crystallized for phasing; source: E. coli BL21 (DE3), purified (Ni-NTA, TEV cleavage, Superdex 200); …
With B2, the “stoichiometry N” value was 2 in data set [6]; 4 and 8 in data set [7]. Besides, binding in data set [5] was put at a Kd of 900 ± 200 nM.

One may read the stoichiometry N as a count of units in the complex or per binding partner. Broadly, the Kd is the concentration at which binding is half-saturated. Low values mean tighter binding, high ones weaker binding.

For the origin of these results see publication PMC3949515, “Multi-PAS domain-mediated protein oligomerization of PpsR from Rhodobacter sphaeroides” (Acta Crystallographica Section D: Biological Crystallography, 2014).
